B1: 77 (protein)
chain: MALIDLHAHAPHPGYYNQHPHWGPFFERHEDGDVKLRVGDWILTLGSPERKALVRAGKGPTVEEYQARWADPKVRLAGMDAAGQNAQVVSVPSHCYMYWAEKEFSVPFATKVNDTFAEYCSAAPDRLMFWAHAALNAPEQAALELRRACTELGAKGLVAGGANFGGLEFDSPELDPVWKVLCDLDLPMFIHGYNQSVTWGKKANDDRYETTAIVGMQYDETRCFWNLVCGGVLDRFPGLKVYITHGGGYVPYQLGRLAQCNGNLDVAHNKKPVLEYLKNNFYFDVELHEVPMRQALIDIIGADRVLYGSNFGGSDAVRHDLTEGLRLSDDDLQKIRWKNACKLLHLDPAKIGEPAKKQAVSA
modifications: Burkholderia xenovorans
B2: 73 (protein, listed as Sphaerobacter thermophilus)
chain: MARIDAHAHAQPPEYLDALLASGRYESVRDAEGRIVVRERGSRFLTITPQMHHPEQRVAEMDEAGIDMQILSVTTPQVYFLQGQAAVDLARRCNDYLADIVRSYPTRFRALASVPLTADPDAAVREFVRCLDDLGMVGAIIGSNIDGRPIDDPAFDAFYAEADRRATTLFIHPMVPAGIEVMNPYALAPLVGFMFDTTLAVSRLIFSGFFERYPRVKVLVGHLGAAVPYLAGRLDIGWRSYSDCQGIPHPPTEYIRRLYLDTVSFHAPALRCALETVGPDRIVFGSDYPHVIGDVGGAIASIQQALPATTHDGVLGHTAAELFGVSA
B3: 74 (protein, listed as Ramlibacter tataouinensis)
chain: MATVIDVHTHMFTTKWLELLKKEGGQYNIQTRPDGQQEIFRGNTPVVIPQKGHFDWKLRIQHMDQAGIDVSVVSLTCPNVYWGGEDVSVRAAREANDNVAQAQTAYPDRIRWFASLPWEYMATVIDVHTHMFTTKWLELLKKEGGQYNIQTRPDGQQEIFRGNTPVVIPQKGHFDWKLRIQHMDQAGIDVSVVSLTCPNVYWGGEDVSVRAAREANDNVAQAQTAYPDRIRWFASLPWEYPQRAVEELERSCAQGAAGVMVLANVAGRSLTDPLFAPVWAEIDRRALPVLVHPTDPPGVDLMDMTKFDLSWSVGFMFDTTLAITRMIFEGFFDRYPNLRIIASHGGGTLPYLVGRFEKGDEVELASRRQMKRKPTDYLRHIHYDCITYNLGALQYLISVVGAGQVMFGTDWPHWVHDTRGAFANTAQLPQEQTRAVRGANAQRLFKL
B4: 76 (protein, listed as Polymorphum gilvum)
chain: MAKKIDIFNHIWPEPFFKALIAHIGEMTDITMRSGAVPMMTNLDRRFEVMDMFGPDYMQVLSLASPPLEKLADPAKALELSRIGSDSLAELCQRYPERFPAFIGTAPLSNPAAVVGECRRAIEDLGAAGMQIFTNVAGKPLDLAEFEPFFEYMASAGKPVWLHPARGEAFADYQTEKRSEYEIWWTFGWPYETSAAMARLVFSRMFDKYPGLKVITHHAGGMVPFFEGRVGPGWDQMGARTTDRDLAAVRKALKRPHLDYFKEFYADTASFGSRKAIEHAIEFFGEDRVLFASDAPFDPEGGPMYIRETMRCIDSLDLTDAQRRKIYHGNATALLGLSL
B5: 3 (protein, listed as Lactobacillus plantarum)
chain: MAKLITVEEHFESAAVTAAMRQAVGNAVLPAVSPALRQYMRDNLPSPAIMQDTQHERLAFMAQYGIDMQVLSYGNSSPQNLSPEQAVPLSQLANDELAKAVVAHPDRYAGLAVLPVGDPQAAVAELNRAVTTLGLRGVLLKGNYQNKFFDEPFFLPIFEAAAALDVPVYFHPSFIPQAVTSHYFESNQWSDVVTGILSSAGYGWHMDVGIQVIRMIASGIFDKLPGLKLISGHWGELVPLFLERLDDELTTYTDLQYPFSTYYRHNVYVTPSGILSAPQLQFMLAEMGADHLMYSIDYPYKQPETSGSFLDIADLTDEQRAQIAFGTATTLFKL
B6: 2 (protein, listed as Serratia sp.)
chain: MAKIICLEEHTLDKALVMASMPAALEQAPFLSDWGKTVTDGNLPDRSRPQIEKNDLINIKGADIGRGRLDDMDVAGITMQVLSVGGFPHLISAAEGVDLNRAANDRLADAVNAHPDRFAAFATLPWAQPDSAEKELERAVKELGFKGALLNGRPSTHFLDHPDYDGLLARFNALGVPLYLHPGLPVRSVQQAYYGGFSDEVTARLSMFGWGWHHEAGIHLLRLILSGAFDKYPNLQVISGHWGEMLPFWLQRLDDSLPQAATGLRRTIAQTFKEQVYVTPSGMLTLPHFQFIYALLGAERIIFSVDYPYQTLDGVKAFIQSLPVPEEAKEAIAFRNAERLLGLTS
B7: 62 (protein)
chain: MAVGGKNFRDVTDQVWCPKKRIEDMDREGVDIQVLSPIPVTFSYWAKPEEAESMARIQNDFIAETVLAYPDRFVGLGTVPMQDGETAIREMERCITELNLHGIEIGTNVNGKNLDDPSFIEFFRMAEKWQVPIFIHPWETLGRDRMPHHNFMYTVGMPSETALAAATLIWSGIMEKFPRLKVCFAHGGGSFPYILPRLDQGWKVWPHLRLTTHPPSYYAKKFYFDSLNYDPINLKYMIERFGHEKIFMGSDYPFLLREVDPGKVIDETASLSEEQKAAMLGGNAAEFLNIDIKKRGVAYAESTNT
modifications: Bacillus thuringiensis serovar pulsiensis
B8: 72 (protein)
chain: MADCPCCVSPKRRRLLGSVSAIAAGMMAGLPALAAQPSTAAAGTGKPLSIDIHAHYYSESFLGLLGGEGKQFGGHFFRNDDSFTFQTPAGGLGPLPMKFIDVEQRVRDMDNSGVDVQAISLSVPMVYWADRTLNAKLARAWNTAASDVHRKHPTRFVVLATLPMLNANDAIDELEFAAGLPGVRGIYMGTNINNRDLDDPLFSPIFKRIEQLNLPIFLHPQQTVGGARLADFYLSNLLGNPFDTAIAASHLILGGVLDKYPALHFSLPHAGGALPILVGRIDAGWSMRSETKRVAQKPSSYLRRFSYDTISHSGPTLDFLIRNIGADRLVLGSDYCFDMGYEQPVRFLDRLALPDDQKRMVVGGNAARLLNL
modifications: Cupriavidus necator
B9: 68 (protein, listed as Hoeflea phototrophica)
chain: MAIIDAHTHTLCPAVNEKVAGTIKPDSVPYQRDMSPESKEQDHTQFPELKIMFNQVERRLADMARMGIDRQVIAPAPGQQHYWAEPKLLAEISALQNDHVAELVARAPDRFAGIGTLPMTDPDAAVAEITRATRELGLRVFQIDSRVMERELSDASLDPIYAALEAAGAGLMIHPLGFSNGERLTPFFMVNSVAQPLEELLAFNHLVFGGVLDRFPKLKVYIAHGGGFAPFYIGRFDHAWKVRPEVNRLTPSAPSTYLRRIYFDTCVYRTDHIETLVRTVGADRVMLGSDYPFDMGDTDPLGLLNACQGLSDDEKATISSKVAIDFFGLET
B10: 61 (protein, listed as Gordonia amarae)
chain: MATGAGSGVPSPADRVIVRSPGVIDVHAHAVLPMSLGCAGAAGPEIGYREDGSPFFRVGEYVLNGVRYEGSAFMDPEVRVAAMDAAGIGLQMISPNPITYFTRLDARSATDYARAHNDAIAEAAGRHPGRLVGAAQLPMQDVPAAIAELERSVRELGLVAAYIDTDIGDRTLDAPELDDFYSAAVELDVPVFIHPSPVGQEGPPDDTRLRRFDLDLLLGFSYDETLAVAALVFGGVLERHPALDVCLSHGGGTLAFVAGRFARAVAKPRAWVPEFLVENGIESYLRRLWLDTHVHSAGSLRLLIDTVGTDRLVFGTNFAGWDADGATEVDALGDLRETTTANAAHLLRLGRA
B11: 71 (protein, listed as Burkholderia dolosa)
chain: MARAGHRAARTRQSRPGDRTMTCSCCMSAGRRRVLGAFAALAGAPKGPRAASAAQPAAASKPTRGDATARNRHSRALLPGKASASWSATKASGSGGAFAWDDTTFTFRTPAGGLGPLPMKFIDVDARLRDMDASGVDVQALSLSVPMAYWGDRPFNAKLARAWNTAASRVHVRAPDRFVVLATLPMLDATDAIDELERASELPGVRGVYMGTNIDNRDLDDPRFAPVFARIEQLGLPVFLHPQQTVGGARLGDFYLSNLLGNPFDTAIAASHLILGGVLDRHPALHFTLPHAGGALPILVGRLDAGWTVRAETRRLAHQPSGYLRRFSYDTVSHSGPVLNFLIENVGIDRLVLGSDYCFDMGYEQPVRFLDRLDLTPDERAMVIGGNAGRLLRI
B12: 69 (protein, listed as Microbacterium testaceum)
chain: MATSTEGQDVTDVHAHLLMPGLHAEVERRVPDEVQAAADLELRRNGLASLQASGRMIGERFPRLTDVRARLAAMDEQGVDRQWVSPSPNHFYPWANEGLATWASGEANRLIAEHVALAPDRLVGLGVVPLQHPHLVVDALDDAVLGRGLAGVEISSFAGDVELSDERLESFWARAAELRAVVFLHPFGCSLDERLDRFYLSNTVGQPTENAVALSHLIFSGVLDRHPGLRLIAAHGGGYLPTAIGRSDRAWRVRPEARGCAHAPSTYLSKLWFDTVVHDERALRWLVEAAGADRVLLGSDFPFDMGLDDPVAFVRGAGLQDAEVSGILGGNAAELLRTRVHA
B13: 70 (protein, listed as Alicyclobacillus acidocaldarius)
chain: MAIEPNRAADVHTHFLPTEVLEFLKREPRIQVDLERRAPDKEPFLTVEGRWSFELKRMFVDFEAFASAYRQAGIGLALVSPLPQLFVYHLPAEMGAQVAEVYNDALRDVLAPHRERFRPLATLPLADPTAAARELERRMDEGFVGAIVGPGVGEALIGDEAFWPLWEVADARRAVLFLHPLLHADPRAARLMLPNLVGVPWETTLAAAHLVLSGLLDRYPGARVLLAHGGGFLPYQIGRIEQGYDVWPQVRGRLQDRPTAYLRRMFYDNVLWSDAALRCLIDVVGADRVLAGSDFPFDLSAWPPRPGADVSVLAGGSGREGRLS
B14: 64 (protein, listed as Achromobacter piechaudii)
chain: MAIQKIDMHAHFFPPITRQEAAALDPVNAPWLRPDADGATGQIMAGEREFRPVDATLWDPALRIEQMDRHGVDVQILCATPIMFGYTYPARPAADWAARMNDLALEHCAYAPSRLKALAQVPLQDLELACQEASRARAAGHLGVQIGNHVGPRDLDDETLVQFLIHCANNDIPVLVHPWDMMTDGRMKKWMLPWLVSMPAETQLGILSLILSGAFERIPRSLKLCFAHGGGSFAYLLGRVDNAWRHRDIIRQDCPQLPSSYTDRFYTDSAVFDPRSLRLLIDVMGEDRVLLGSDYPYPLGEQEVGRLVAHAELVPEVQQKILFRNTMTFFGLQPGLQPGLQS
B15: 75 (protein, listed as Ectocarpus siliculosus)
chain: MAKIDSYTHFACPAFMDHLEAESGHPMVFRGLFSSIPELSDIDLRIRYMDEHGIDVHCLVPLPWLECEPGLHADEGKALEACRIANDEMARVVARFPDRLIGVALIPTTTEQAMIQETTRAVKELGMAGVALFVGPTAKPPDMACFEGLYRTCEELGAVVWMHPCRPQSYADYDSYKGEGSKHQIWNTFGWIYDTSVAMVHIALAGVFRRYPGLKVVTHHHGAMVPFFTARFDTQRRNFQEVEGDDLLEDLRLFYCDTATFGESAANIQQAIDFFGKSQVLFGTDTPMDMGTRGMFTRTTIASVEALGAAPEDKESFYAGNVLDMLGERFAGISGARGAVAARPKGDSTRIAASL

Test: Saturation mutagenesis of SEQ ID NO:109: dicamba decarboxylation activity of point mutants (CO2 released), fold of backbone (Tables 7, 8, Megatable 1)
Details: decarboxylation activity (CO2 released) of point mutant vs unmutated backbone protein; backbone SEQ ID NO: 109

Compared with B1, B2 is lower in “Fold Activity” value: 1.3 fold for the first, 1.2 fold for the second.

Going from B3 to B4, the “Fold Activity” value falls from 1.4 fold to 1.1 fold.

Going from B5 to B6, the “Fold Activity” value rises from 0.9 fold to 1.1 fold.

Compared with B7, B8 is higher in “Fold Activity” value: 1 fold for the first, 1.2 fold for the second.

Compared with B9, B10 is higher in “Fold Activity” value: 1.3 fold for the first, 2.4 fold for the second.

Compared with B11, B12 is lower in “Fold Activity” value: 1.5 fold for the first, 1.3 fold for the second.

First: B13
Second: B14
The “Fold Activity” value of the first is lower: 1.7 fold for the first, 1.8 fold for the second.

With B15 the “Fold Activity” value was 1.7 fold.

Source: US20160040149A1, “Compositions Having Dicamba Decarboxylase Activity and Methods of Use” (priority 2013, published 2016)
